Laboratory results reported in US20090285824A1.

Columns and labels:
[1] = target: hu IGF-1R(ECD)-C3-muIgG1Fc (human; mouse); assay: ORIGEN competition: antibody vs 1 nM Ru-IGF-1 on IGF-1R(ECD)-C3-muFc beads
[2] = target: hu IGF-1R(ECD)-C3-muIgG1Fc (human; mouse); assay: ORIGEN competition: antibody vs 2 nM Ru-IGF-2 on IGF-1R(ECD)-C3-muFc beads

Substance | Ki [1] [µM] | Max (%), maximum level of inhibition at 1 µM antibody [1] [%] | Ki [2] [µM] | Max (%), maximum level of inhibition at 1 µM antibody [2] [%]
murine anti-IGF-1R antibody 1H7 (Santa Cruz Biotechnology) | 0.016 | 89 | 0.0131 | 99
murine anti-IGF-1R antibody αIR3 (Calbiochem) | 0.0053 | 91 | – | –
